{"source": "patent US11524082B2", "about": "“FBSA-based therapeutic and radioimaging conjugates targeting carbonic anhydrase positive cancers” (priority 2017, dated 2022)", "key": {"HT-29 cells": {"system": "HT-29 cells", "assay_type": "cell-based", "conditions": "2 hr incubation, then 66 hr in fresh medium, FIG. 8, read-out: IC50 (3H-thymidine incorporation)", "experimental": "General Procedure for In Vitro Cytotoxicity Determination by ^3H-Thymidine Uptake Assays\nHT-29 cells were seeded on amine-coated 24-well plates and allowed to form monolayers. The spent medium in each well was replaced with fresh medium (0.5 mL) containing various concentrations of Conjugate 12. After incubating for 2 hr at 37° C., cells were rinsed three times with fresh medium and then incubated an additional 66 hr at 37° C. in fresh medium. Spent medium in each well was again replaced with fresh medium (0.5 mL) containing ^3H-thymidine (1 μCi/ml) and the cells were incubated for an additional 4 hr. After washing the cells three times with medium, they were dissolved in 0.5 mL of 0.25 M NaOH. Thymidine incorporation was then determined by counting cell-associated radioactivity using a scintillation counter (PACKARD, PACKARD INSTRUMENT COMPANY). The IC50 value was derived from a plot of the percent of ^3H-thymidine incorporation versus log concentration using Graph Pad Prism 4 and TABLECURVE 2D software."}, "HT-29 xenografts": {"system": "HT-29 xenografts", "assay": "In vivo efficacy of tubulysin conjugates in HT-29 xenograft tumors", "design": "species or system mice", "experimental": "Athymic nu/nu mice were purchased from Harlan Laboratories (ENVIGO), housed in a sterile environment on a standard 12 hour light-dark cycle and maintained on normal rodent chow. All animal procedures were approved by the PURDUE Animal Care and Use Committee in accordance with National Institutes of Health guidelines.\nIn Vivo Efficacy of Tubulysin Conjugate 12 in HT29 Xenograft Tumors.\nCells, HT-29 cells (4.25×10^6) were subcutaneously injected into the shoulders of 5-6 week old female nu/nu mice. Tumors were measured in two perpendicular directions thrice weekly with vernier calipers and their volumes were calculated as 0.5×L×W^2, where L is the longest axis (in millimeters), and W is the axis perpendicular to L (in millimeters). Dosing of Conjugate 12 was initiated when the subcutaneous tumors reached ˜100-275 mm^3 in volume. Dosing solutions were prepared in saline and filtered through a 0.22 μm filter. Solutions were administered via tail vein injection or intraperitoneally. […] Injections were given every two days and the mice were weighed concurrently. […]"}}, "note": "pIC50: −log10 of the molar value. “Also recorded” adds a separate entry of the source.", "data": [{"compound": "CCCC(=O)OCN(C(=O)[C@@H](NC(=O)C1CCCCN1C)[C@@H](C)CC)[C@H](C[C@@H](OC(C)=O)c1nc(C(=O)N[C@@H](Cc2ccc(O)cc2)C[C@H](C)C(=O)NNC(=O)OCCSSC[C@H](NC(=O)[C@H](CC(=O)O)NC(=O)[C@@H](N)CNC(=O)CCOCCOCCNC(=O)CCS(=O)(=O)c2c(F)c(F)c(S(N)(=O)=O)c(F)c2NC2CCCCCCC2)C(=O)O)cs1)C(C)C", "note": "(some centres unmarked) [Conjugate 12]", "values": [{"measurement": "pIC50", "setting": "HT-29 cells", "result": 8.30}, {"measurement": "gross toxicity", "setting": "HT-29 xenografts; HT-29 xenograft mice, 2 μmol/kg per injection", "result": "no gross toxicity was observed"}, {"measurement": "loss of weight", "setting": "HT-29 xenografts; HT-29 xenograft mice, 2 μmol/kg per injection, FIG. 12", "result": "less than 10%"}, {"measurement": "body mass loss", "setting": "HT-29 xenografts; HT-29 xenograft mice, 2 umol/kg, at 6 days into the treatment, FIG. 12", "result": "not more than 10%"}, {"measurement": "tumor response", "setting": "HT-29 xenografts; HT-29 xenografts, 2 μmol/kg per injection, every two days (TIW), n=3, FIG. 11", "result": "tumors shrinking; also recorded: halted tumor growth and the xenograft is in the process of shrinking"}]}]}
